Where a chain is given by its changes, count along the chain named. Like-named read-outs stand apart in the source and are kept apart here. Each block holds one binder with its values, some of them ahead of it.
Columns and labels:
[1] = target: T1, recombinant protein consisting of the extracellular domain of human TREM2 fused to the His tag (human, UniProt Q9NZC2 19-174); assay: direct ELISA
T1 construct: also called His tagged hTREM2; His-TREM2
T1 sequence: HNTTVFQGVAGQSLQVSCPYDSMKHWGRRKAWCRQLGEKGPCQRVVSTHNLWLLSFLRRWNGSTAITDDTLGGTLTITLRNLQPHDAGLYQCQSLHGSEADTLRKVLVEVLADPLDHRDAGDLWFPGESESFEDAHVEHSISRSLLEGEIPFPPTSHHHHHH
Procedure: (§1) Ninety six-Well ELISA microplate was coated with 0.5 μg/mL, 100 μl/well His tagged hTREM2 diluted in PBS pH 7.4, and incubated at 4° C. overnight. The plate was rinsed three times with 0.05% tween20 in PBS, blocked with 1% BSA in PBS at room temperature (RT) for 1 hr, and rinsed again. The plates was incubated with the anti hTREM2 antibodies (100 μl/well) for 2 hrs at indicated concentration, at RT. Plate was rinsed and incubated with Peroxidase-AffiniPure Goat anti Mouse IgG, Fcg fragment specific (min X Hu, Bov, Hrs, Sr Prot; Jackson ImmunoResearch) for 20 min at RT. The plate was rinsed and incubated with TMB Reagent (TM4500, Scytek) for 20 min at RT, followed by the addition of Stop Solution 2N Sulfuric Acid (DY994, R&D). OD was measured using an ELISA plate reader at dual wavelengths (450 nm and 570 nm)

[2] = target: T2, human TREM2 (hTREM2) on cells (human, UniProt Q9NZC2 19-230); assay: flow cytometry on BMDM
T2 construct: also called hTREM2 expressing HEK293
T2 sequence: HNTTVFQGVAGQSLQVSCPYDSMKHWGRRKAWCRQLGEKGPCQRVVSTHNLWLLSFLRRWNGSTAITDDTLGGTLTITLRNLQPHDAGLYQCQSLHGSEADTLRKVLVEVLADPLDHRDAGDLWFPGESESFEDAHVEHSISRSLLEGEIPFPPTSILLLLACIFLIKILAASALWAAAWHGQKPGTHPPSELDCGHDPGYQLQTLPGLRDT
Procedure: TREM2 KO and hTREM2 BMDM were washed with MACS buffer (PBS pH 7.2, 0.5% BSA and 2 mM EDTA) and stained with biotin conjugated anti hTREM2 antibodies (10 μg/mL) followed by Washing with MACS buffer and APC-streptavidin (Biolegend, 405207) incubation, then analyzed by flow cytometer (LSRII, BD).

[3] = target: T3, recombinant protein consisting of the extracellular domain of human TREM2 fused to the His tag (UniProt Q9NZC2 19-174); assay: SPR
T3 chain: T1 sequence

[4] = target: T4, soluble TREM2 protein (human, UniProt Q9NZC2 19-157); assay: sup ELISA, hTREM2 vs WT 293HEK supernatant
T4 construct: also called TREM2 in cell culture supernatant (Sup)
T4 sequence: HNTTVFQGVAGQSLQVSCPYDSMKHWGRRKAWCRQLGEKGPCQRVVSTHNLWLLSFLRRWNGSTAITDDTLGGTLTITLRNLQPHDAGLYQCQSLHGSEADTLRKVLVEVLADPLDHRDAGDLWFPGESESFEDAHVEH
Procedure: Supernatant was collected, centrifuged for 5 min at 900 g and filtered (0.45 μm). Ninety six-well ELISA microplate was coated with 0.2 μg/well of anti human TREM2 Antibody (AF1828, R&D) diluted in PBS, and incubated at 4° C. overnight. The plate was rinsed three times with 0.05% tween20 in PBS, blocked with 1% BSA in PBS at room temperature (RT) for 1 hr, and rinsed again. The plates was incubated with the cell culture supernatant (100 μl/well) for 2 hrs at RT for and rinsed again. The plate was incubated with 0.1 μg biotinylayed anti hTREM2 antibodies for 2 hrs at RT. After incubation, the plate was rinsed and incubated with streptavidin-HRP (DY998, R&D) for 20 min at RT. The plate was rinsed and incubated with TMB Reagent (TM4500, Scytek) for 20 min at RT, followed by the addition of Stop Solution 2N Sulfuric Acid (DY994, R&D). OD was measured using an ELISA plate reader at dual wavelengths (450 nm and 570 nm)
(§2) A. Cells culture supernatant (Sup) was used for soluble TREM2 protein binding capability test of 18 hybridoma derived monoclonal antibodies by direct ELISA. B. Cells were captured in 96 wells plate and were used for cell based ELISA of 18 hybridoma derived monoclonal antibodies. OD values positive cells (hTREM2 expressing HEK293) and negative cells (WT HEK293) are showing in the table.

[5] = target: T2, human TREM2 (hTREM2) on cells; assay: cell-based ELISA, hTREM2 vs WT 293HEK cells
Procedure: Cells were washed three times with PBS and blocked (5% FBS, 1% BSA in PBS) for 2 hrs at RT. Cells were washed with 1% BSA in PBS and were incubated with 0.1 ug (or indicated amount) obiotinylayed anti hTREM2 antibodies for 4 hrs at RT. After incubation, cells were incubated with streptavidin-HRP (DY998, R&D) for 20 min at RT. The cells were washed and incubated with TMB Reagent (TM4500, Scytek) for 30 min at RT, followed by the addition of Stop Solution 2N Sulfuric Acid (DY994, R&D). OD was measured using an ELISA plate reader at dual wavelengths (450 nm and 570 nm). Biotinylation of Antibodies was done using EZ-Link™ Sulfo-NHS-LC-Biotinylation kit (Thermo Fisher Scientific) according to manufacturer's instructions.
as §2

[6] = target: T1, recombinant protein consisting of the …; assay: direct ELISA; highest dilution with S/B >= 2.1
Procedure: as §1
(§3) Purity is measured by SDS-PAGE. Quantity of endotoxin (EU/mg) is measured by LAL assay. Titer measured by direct ELISA, while the title value is the highest dilution with S/B (Signal/Blank) >= 2.1

[7] = target: T1, recombinant protein consisting of the …; assay: direct ELISA; highest dilution with S/B >= 2.1; remark: listed apart in the source
Procedure: as §1, §3

[8] = target: T1, recombinant protein consisting of the …; assay: direct ELISA, coated His-TREM2 0.5 ug/mL, Ab stock 1 mg/mL
Procedure: as §1

- direct ELISA positive/negative [1]: 35.1 ratio
- FACS positive/negative BMDM [2]: 1.47 ratio
- sup ELISA positive/negative (293HEK) [4]: 3.05 ratio
- Cell based ELISA positive/negative [5]: 2.46 ratio
- Titer [6]: 2.19e+06 dilution
- Titer [7]: 2.19e+06 dilution
- OD at dilution 1000 [8]: 2.75 OD
- OD at dilution 3000 [8]: 2.76 OD
- OD at dilution 9000 [8]: 2.88 OD
- OD at dilution 27000 [8]: 2.58 OD
- OD at dilution 81000 [8]: 1.92 OD
- OD at dilution 243000 [8]: 0.985 OD
- OD at dilution 729000 [8]: 0.405 OD
- OD at dilution 2187000 [8]: 0.169 OD
- OD at dilution 6561000 [8]: 0.099 OD
- OD at dilution 19683000 [8]: 0.066 OD
B3: 61B11C9 (antibody, V domains shown)
VH: QLQESGPEQVKPGASVKMSCRTSGYTFTAYNMHWVKQRLGKSLEWIGYIRPTNGDTRYNRRFRDKATLTVDKSSSTTYMELRSLTSEDSAVYYCTRSTTVASFDYWGQGTTLTVSS
VL: DIVMTQTTSSLTVSVGQKITLNCKSSQSLLYTNNQKNFLAWYQQKPGQSPKLLIYWASTRDSGVPDRFTGSGSGTDFTLTITSVMAEDLAVYFCQQYYDFPPTFGGGTKLEIK
notes: Biotin conjugated in sup ELISA, cell-based ELISA and flow cytometry

- direct ELISA positive/negative [1]: 27.4 ratio
- FACS positive/negative BMDM [2]: 1.16 ratio
- sup ELISA positive/negative (293HEK) [4]: 10 ratio
- Cell based ELISA positive/negative [5]: 1.38 ratio
- Titer [6]: 729000 dilution
- Titer [7]: 729000 dilution
- OD at dilution 1000 [8]: 1.83 OD
- OD at dilution 3000 [8]: 1.89 OD
- OD at dilution 9000 [8]: 1.69 OD
- OD at dilution 27000 [8]: 1.31 OD
- OD at dilution 81000 [8]: 0.849 OD
- OD at dilution 243000 [8]: 0.432 OD
- OD at dilution 729000 [8]: 0.222 OD
- OD at dilution 2187000 [8]: 0.133 OD
- OD at dilution 6561000 [8]: 0.102 OD
- OD at dilution 19683000 [8]: 0.067 OD
B5: 60H4G2 (antibody, V domains shown)
VH: EVQLQESGPELVKPGASVKMSCKASGYTFTDYNMHWVKQSHGKSLEWIGYIYPNNGGTGYNQKFKGKATLTVNKSSSTAYMELRSLTSEDSAVYYCARSGRGFAYWGQGTLVTVSA
VL: DIVMTQSTSSLTVTAGEKVTMSCKSSQSLLNSGNQKNYLTWYQQKPGQPPKLLIYWASSRESGVPDRFTGRGSGTDFTLTISSVQAEDLAVYYCQNDYSYPFTFGSGTKLEIK
notes: as for B3

- direct ELISA positive/negative [1]: 34.8 ratio
- FACS positive/negative BMDM [2]: 2.58 ratio
- Kd [3]: 32.1 pM
- sup ELISA positive/negative (293HEK) [4]: 27.9 ratio
- Cell based ELISA positive/negative [5]: 1.91 ratio
- Titer [6]: 243000 dilution
- Titer [7]: 243000 dilution
- OD at dilution 1000 [8]: 2.59 OD
- OD at dilution 3000 [8]: 2.49 OD
- OD at dilution 9000 [8]: 1.98 OD
- OD at dilution 27000 [8]: 0.843 OD
- OD at dilution 81000 [8]: 0.375 OD
- OD at dilution 243000 [8]: 0.179 OD
- OD at dilution 729000 [8]: 0.099 OD
- OD at dilution 2187000 [8]: 0.068 OD
- OD at dilution 6561000 [8]: 0.07 OD
- OD at dilution 19683000 [8]: 0.053 OD
B6: 83E10B12 (antibody, V domains shown)
VH: QVQLQESGPELVKPGASVKISCKASGYIFSYSWMNWVKQRPGKGLEWIGRIYPGDGDADYNGKFKGKATLTADKSSNTAYMQLTSLTSEDSAVYFCARLHIYDGYYVSVYWGQGTLVTVSA
VL: DIQMTQTTSCLSASLGDRVTISCRASQDINNYLSWYQQKPDGTVKLLIYYTSKLHSGVPSRFSGSGSGTDYSLTIGNLEQEDVATYFCQQGDTLPWTFGGGTRLEIK
notes: as for B3

The remaining lines, values behind:

B1: 80E3C7 (antibody, V domains shown)
VH: QVQLQQPGAEPLKPGASVKMSCEASGYTFTNFWITWMKLRPGQGLEWIGDIYPGTGNTNYNEKFKSRATLTVDTSSTTAYMQLSSLTSEDSAVYYCAREAYYTNPGFAYWGHGTLVTVSA
VL: DVLMTQSPLSLPVNLGDQASISCKSSQNIVHSNGNTYLEWYLQRPGQSPKLLIYKVSNRFSGVPDRFSGSGSGTDFTLKISRVEAEDLGVYYCFQGSHVPYTFGGGTKLEIK
notes: Biotin conjugated in sup ELISA, cell-based ELISA and flow cytometry; also called anti-TREM2 antibody (E3C7); TREM2 Ab E3C7
- direct ELISA positive/negative [1]: 33.4 ratio
- FACS positive/negative BMDM [2]: 1.87 ratio
- Kd [3]: 0.0275 pM
- sup ELISA positive/negative (293HEK) [4]: 24.9 ratio
- Cell based ELISA positive/negative [5]: 2.8 ratio
- Titer [6]: 2.19e+06 dilution
- Titer [7]: 2.19e+06 dilution
- OD at dilution 1000 [8]: 2.02 OD
- OD at dilution 3000 [8]: 2.12 OD
- OD at dilution 9000 [8]: 2.16 OD
- OD at dilution 27000 [8]: 1.76 OD
- OD at dilution 81000 [8]: 1.2 OD
- OD at dilution 243000 [8]: 0.608 OD
- OD at dilution 729000 [8]: 0.281 OD
- OD at dilution 2187000 [8]: 0.145 OD
- OD at dilution 6561000 [8]: 0.092 OD
- OD at dilution 19683000 [8]: 0.085 OD

B2: 54H2C1 (antibody, V domains shown)
VH: B1 VH with K13T, M37V, T55S
VL: B1 VL with V90L
notes: as for B3
- direct ELISA positive/negative [1]: 33.9 ratio
- FACS positive/negative BMDM [2]: 2.72 ratio
- Kd [3]: 399 pM
- sup ELISA positive/negative (293HEK) [4]: 25.1 ratio
- Cell based ELISA positive/negative [5]: 2.69 ratio
- Titer [6]: 729000 dilution
- Titer [7]: 729000 dilution
- OD at dilution 1000 [8]: 1.4 OD
- OD at dilution 3000 [8]: 1.35 OD
- OD at dilution 9000 [8]: 1.18 OD
- OD at dilution 27000 [8]: 0.967 OD
- OD at dilution 81000 [8]: 0.586 OD
- OD at dilution 243000 [8]: 0.276 OD
- OD at dilution 729000 [8]: 0.147 OD
- OD at dilution 2187000 [8]: 0.106 OD
- OD at dilution 6561000 [8]: 0.087 OD
- OD at dilution 19683000 [8]: 0.069 OD

B4: 60H4A3 (antibody, V domains shown)
VH: B5 VH
VL: DIVMTQSPASLSVTPGDRVSLSCRASQSISDYLHWYQQKSHESPRLLIKYASQSISGIPSRFSGSGSGSDFTLSINSVEPEDVGVYYCQNGHSFPYTFGGGTKLEIK
notes: as for B3
- direct ELISA positive/negative [1]: 31.5 ratio
- FACS positive/negative BMDM [2]: 1.78 ratio
- sup ELISA positive/negative (293HEK) [4]: 11 ratio
- Cell based ELISA positive/negative [5]: 1.89 ratio
- Titer [6]: 2.19e+06 dilution
- Titer [7]: 2.19e+06 dilution
- OD at dilution 1000 [8]: 1.84 OD
- OD at dilution 3000 [8]: 1.8 OD
- OD at dilution 9000 [8]: 1.9 OD
- OD at dilution 27000 [8]: 1.63 OD
- OD at dilution 81000 [8]: 1.16 OD
- OD at dilution 243000 [8]: 0.763 OD
- OD at dilution 729000 [8]: 0.322 OD
- OD at dilution 2187000 [8]: 0.17 OD
- OD at dilution 6561000 [8]: 0.113 OD
- OD at dilution 19683000 [8]: 0.063 OD

Source: patent US20240239886A1 (YEDA RESEARCH AND DEVELOPMENT, published 2024)
